Test results from PMC11301080.

Target: recombinant HIV-1 gp120 ZM109 (HIV-1)
Test: BLI

With “Streptococcal Siglec-like lectin SLBR-N, GST-tagged (domain or fragment)” the Kd was 40.3 nM.

Work on “recombinant FimH protein, lectin domain only (from UniProt P08191 22-179) (domain or fragment)” yielded a Kd of 360 nM.
